Assay [1] addresses T1, human GCC (guanylyl cyclase C) (human, UniProt P25092 24-1073).
T1 construct: Target of the IHC on formalin-fixed, paraffin-embedded HEK293-GCC xenografts, GCC-transfected cell pellets and human colon tissues; also called hGCC; STAR
The assay can be described thus: IHC on FFPE GCC-transfected and parental cell pellets.

Assay [2] addresses T1, human GCC (guanylyl cyclase C). The assay can be described thus: automated IHC (TechMate) on FFPE colon tumors and cell pellets, antibody at 1.0 ug/ml overnight.

T1 sequence (P25092 24-1073 limits assumed): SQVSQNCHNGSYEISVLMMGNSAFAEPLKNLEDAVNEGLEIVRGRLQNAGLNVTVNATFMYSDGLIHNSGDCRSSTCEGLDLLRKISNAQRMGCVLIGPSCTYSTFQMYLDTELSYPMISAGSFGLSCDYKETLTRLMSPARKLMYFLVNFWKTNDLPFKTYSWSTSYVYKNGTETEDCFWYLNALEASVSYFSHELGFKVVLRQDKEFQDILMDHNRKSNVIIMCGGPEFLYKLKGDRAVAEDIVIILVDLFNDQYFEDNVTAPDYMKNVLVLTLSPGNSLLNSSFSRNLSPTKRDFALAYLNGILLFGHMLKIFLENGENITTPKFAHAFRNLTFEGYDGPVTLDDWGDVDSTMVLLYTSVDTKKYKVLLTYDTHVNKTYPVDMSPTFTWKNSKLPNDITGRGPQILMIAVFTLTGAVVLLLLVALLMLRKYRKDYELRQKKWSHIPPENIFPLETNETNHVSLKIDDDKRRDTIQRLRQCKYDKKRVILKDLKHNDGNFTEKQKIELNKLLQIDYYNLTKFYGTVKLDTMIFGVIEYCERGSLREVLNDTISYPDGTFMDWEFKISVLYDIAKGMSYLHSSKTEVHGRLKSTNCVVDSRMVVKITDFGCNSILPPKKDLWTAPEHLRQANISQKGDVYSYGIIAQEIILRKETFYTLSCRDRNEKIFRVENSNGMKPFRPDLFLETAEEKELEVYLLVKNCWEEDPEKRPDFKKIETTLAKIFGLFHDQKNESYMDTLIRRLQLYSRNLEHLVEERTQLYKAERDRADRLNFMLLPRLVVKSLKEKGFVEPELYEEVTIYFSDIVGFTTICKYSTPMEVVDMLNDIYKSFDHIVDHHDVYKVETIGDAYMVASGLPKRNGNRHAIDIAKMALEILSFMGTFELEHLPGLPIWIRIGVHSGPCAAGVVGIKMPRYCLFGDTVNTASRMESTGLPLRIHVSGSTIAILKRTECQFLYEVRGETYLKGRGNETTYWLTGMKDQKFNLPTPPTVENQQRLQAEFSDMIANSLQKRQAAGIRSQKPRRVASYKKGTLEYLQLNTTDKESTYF

B1: MIL-44-67-4 (antibody, V domains shown)
VH: QSVEESGGRLVTPGTPLTLTCTASGSDISNYAISWVRQAPGKGLEFIGYISYGKSIYYASWAKGRFAISKTSSTTVDLEITSPTTEDTATYFCAREDSATYSPNLWGPGTLVTVSS
VL: AYDMTQTPASVEVAVGGTVTIKCQASQSINTYLAWYQQKPGQRPKLLIYRASTLASGVSSRFKGSGSGTEFTLTISGVECADAATYYCQQGYSYNNLDRAFGGGTEVVVTG
notes: Rabbit monoclonal IgG from a rabbit-rabbit hybridoma; also called MIL-44-67-4 antibody; subclone #67-4
Regarding B1, in assay [1], the binding result is “binds”.

B2: MIL-44-148-2 (antibody, V domains shown)
VH: QSVKESGGGLFKPTDTLTLTCTVSGFSLSSHRMNWVRQTPGKGLEWIAIITHNSITYYASWAKSRSTITRNTSENTVTLKMTSLTAADTATYFCAREDSMGYYFDLWGPGTLVTISS
VL: AYDMTQTPASVEVAVGGTVTIKCQASQSISNWLAWYQQKPGQSPKPLIYRASTLASGVSSRFRGSGSGTQFTLTISGVECADAATYYCQQTYTNNHLDNGFGGGTEVVVKG
notes: Rabbit monoclonal IgG from a rabbit-rabbit hybridoma
Consider B2, for which, in assay [2], the binding result is reported as “binds”.

For the origin of these results see patent US9273146 (Takeda / Millennium, dated 2016).
